According to patent publication US20210054355A1 (NEW YORK UNIVERSITY, published 2021):

Legend:
Assay in all cases: SEC-MALS, 1:1:1 ternary complex with FGF23 and αKlotho^ecto
[1] = molecular target: T1, FGFR1c^ecto/ΔSLBS (FGFR1c^ecto carrying I203E) (human, UniProt P11362 142-365)
T1 construct: also called FGFR1c^ΔSLBS
T1 sequence: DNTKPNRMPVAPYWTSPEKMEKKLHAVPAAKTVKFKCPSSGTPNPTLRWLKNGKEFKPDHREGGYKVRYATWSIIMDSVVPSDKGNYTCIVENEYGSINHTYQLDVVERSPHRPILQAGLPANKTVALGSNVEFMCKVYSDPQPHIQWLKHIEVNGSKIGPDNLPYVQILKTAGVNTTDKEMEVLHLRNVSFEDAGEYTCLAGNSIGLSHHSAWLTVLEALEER
Method: (§1) A Superdex 200 10/300 GL column (GE Healthcare, USA) was placed in-line between the HPLC pump (Waters 1525) and the HPLC UV (Waters 2998 Photodiode Array), laser light scattering, and refractive index detectors. Light scattering and refractive index detectors were calibrated following the manufacturer's guidelines. The refractive index increment (dn/dc) in which n is the refractive index and c is the concentration of the mixture of DDM and CHS in 20 mM Tris-HCl pH 8.0 buffer containing 300 mM NaCl, was determined offline using an Optilab T-rEX refractive index detector. Monomeric bovine serum albumin (#23210, Thermo Scientific, USA) was used as part of routine data quality control.
(§2) 60 ml or more of 25 mM HEPES pH 7.5 buffer containing 150 mM NaCl were passed through the system at a flow rate of 0.5 mL/min to equilibrate the Superdex 200 10/300 GL column and establish stable baselines for light scattering and refractive index detectors. Purified αKlotho^ecto, FGER1c^ecto (wild type or mutant), and FGF23 (wild type or mutant) proteins were mixed at a molar ratio of 1:1:1 and concentrated to 12.5 μM. 50 μl of protein samples with a molar equivalent of a heparin hexasaccharide (#H006, Iduron, Manchester, U.K.) were injected onto the gel filtration column, and the column eluent was continuously monitored for 280 nm absorbance, laser light scattering, and refractive index. In a separate set of experiments, 50 μl of 1:1:1 FGF23-FGFR1c^ecto-αKlotho^ecto ternary complex at 12.5 μM concentration was mixed with heparin hexasaccharide at molar ratios of 1:0.25, 1:0.5, 1:1, or 1:2, and the mixtures were injected onto the gel filtration column. 50 μl of ternary complex without added heparin hexasaccharide were run as a control. In yet another set of experiments, αKlotho^ecto (wild type or mutant) and FGER1c^ecto were mixed at a molar ratio of 1:1, and 50 μl of concentrated protein mixtures were injected onto the gel filtration column. 50 μl of concentrated αKlotho^ecto (wild type or mutant) alone were run as a control in these experiments. […]

[2] = molecular target: T2, FGFR1c^ecto/ΔSLBS′ (FGFR1c^ecto carrying V221D) (human, UniProt P11362 142-365)
T2 construct: also called FGFR1c^ΔSLBS′
T2 sequence: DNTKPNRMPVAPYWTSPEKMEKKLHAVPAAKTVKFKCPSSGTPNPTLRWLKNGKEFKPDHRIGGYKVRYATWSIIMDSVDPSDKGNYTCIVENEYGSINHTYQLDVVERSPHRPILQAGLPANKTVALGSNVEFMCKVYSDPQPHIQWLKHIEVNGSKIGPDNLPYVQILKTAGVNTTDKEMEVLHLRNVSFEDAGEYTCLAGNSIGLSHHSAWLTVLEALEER
Method: as §1, §2

[3] = molecular target: T3, FGFR1c^ecto/ΔRRBS (FGFR1c^ecto carrying A171D) (human, UniProt P11362 142-365)
T3 construct: also called FGFR1^ΔRRBS
T3 sequence: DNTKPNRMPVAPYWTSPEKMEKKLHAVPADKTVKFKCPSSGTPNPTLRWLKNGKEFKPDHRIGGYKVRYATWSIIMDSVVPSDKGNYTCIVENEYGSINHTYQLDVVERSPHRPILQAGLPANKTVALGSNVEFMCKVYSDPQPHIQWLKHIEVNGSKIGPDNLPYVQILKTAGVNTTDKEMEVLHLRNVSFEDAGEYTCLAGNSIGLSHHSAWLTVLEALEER
Method: as §1, §2

Measured: binding result

B1: FGF23^WT (human FGF23 Y25 to S205 with R176Q/R179Q, protease-resistant minimal protein) (ligand)
chain: YPNASPLLGSSWGGLIHLYTATARNSYHLQIHKNGHVDGAPHQTIYSALMIRSEDAGFVVITGVMSRRYLCMDFRGNIFGSHYFDPENCRFQHQTLENGYDVYHSPQYHFLVSLGRAKRAFLPGMNPPPYSQFLSRRNEIPLIHFNTPIPRQHTQSAEDDSERDPLNVLKPRARMTPAPAS
notes: also called wild-type FGF23; minimal FGF23
binds: all assays above
